From patent US20120178908A1 (Novo Nordisk, published 2012)
Where a chain is given by its changes, count along the chain named.

T1: TLT-1 receptor on the surface of activated human platelets (human, UniProt Q86YW5 16-311)
T1 sequence: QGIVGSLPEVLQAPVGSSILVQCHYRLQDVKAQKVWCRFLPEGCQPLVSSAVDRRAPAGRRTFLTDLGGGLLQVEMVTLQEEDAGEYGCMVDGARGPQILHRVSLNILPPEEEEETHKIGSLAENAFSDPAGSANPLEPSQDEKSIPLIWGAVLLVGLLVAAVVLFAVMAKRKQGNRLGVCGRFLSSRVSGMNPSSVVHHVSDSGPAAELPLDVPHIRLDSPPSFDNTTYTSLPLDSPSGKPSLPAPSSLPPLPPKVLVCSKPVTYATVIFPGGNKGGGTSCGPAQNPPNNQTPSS

T2: TLT-1 18-188 relipidated in 20:80 PS:PC vesicles (human, UniProt Q86YW5 18-188)
T2 sequence: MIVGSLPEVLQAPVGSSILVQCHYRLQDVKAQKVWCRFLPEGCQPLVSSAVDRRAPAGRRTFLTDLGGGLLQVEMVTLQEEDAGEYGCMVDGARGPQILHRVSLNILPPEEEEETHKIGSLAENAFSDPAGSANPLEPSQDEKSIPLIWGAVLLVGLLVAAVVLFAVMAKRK

B1: Fab 0012-LC-L0-hTF.1-219; VH-CH1-HPC4 (other)
light: DVVMTQTPLSLPVSLGDQASISCRSSQSLVHRNGNTYFHWCLQKPGQSPKLLIYKVSNRFSGVPDRFSGSGSGTDFTLKISRVEAEDLGVYFCSQSTHVPYTFGGGTKLEIKRTVAAPSVFIFPPSDEQLKSGTASVVCLLNNFYPREAKVQWKVDNALQSGNSQESVTEQDSKDSTYSLSSTLTLSKADYEKHKVYACEVTHQGLSSPVTKSFNRGECSGTTNTVAAYNLTWKSTNFKTILEWEPKPVNQVYTVQISTKSGDWKSKCFYTTDTECDLTDEIVKDVKQTYLARVFSYPAGNVESTGSAGEPLYENSPEFTPYLETNLGQPTIQSFEQVGTKVNVTVEDERTLVRRNNTFLSLRDVFGKDLIYTLYYWKSSSSGKKTAKTNTNEFLIDVDKGENYCFSVQAVIPSRTVNRKSTDSPVECMGQEKGEFRE
heavy: EVKLLESGGGLVQPGGSLKLSCAASGFDFSRYWMTWVRQAPGKGLEWIGEINPDSSTINYTPSLKDKFIISRDNAKNTLYLQMSEVRSEDTALYYCASGVFTSWGQGTLVTVSAASTKGPSVFPLAPCSRSTSESTAALGCLVKDYFPEPVTVSWNSGALTSGVHTFPAVLQSSGLYSLSSVVTVPSSSLGTKTYTCNVDHKPSNTKVDKRVESKEDQVDPRLIDGK
B2: Fab 0061-VH-CH1-L10-TF;LC-HPC4 (other)
VH-CH1-linker-TF: EVKLLESGGGLVQPGGSLKLSCAASGFDFSRYWMTWVRQAPGKGLEWIGEINPDSSTINYNPSLKDKFIISRDNAKNTLYLQMSEVRSEDTALYYCASGVFTSWGQGTLVTVSAASTKGPSVFPLAPCSRSTSESTAALGCLVKDYFPEPVTVSWNSGALTSGVHTFPAVLQSSGLYSLSSVVTVPSSSLGTKTYTCNVDHKPSNTKVDKRVESKYGPPSPSSPAPEFLGGSGTTNTVAAYNLTWKSTNFKTILEWEPKPVNQVYTVQISTKSGDWKSKCFYTTDTECDLTDEIVKDVKQTYLARVFSYPAGNVESTGSAGEPLYENSPEFTPYLETNLGQPTIQSFEQVGTKVNVTVEDERTLVRRNNTFLSLRDVFGKDLIYTLYYWKSSSSGKKTAKTNTNEFLIDVDKGENYCFSVQAVIPSRTVNRKSTDSPVECMGQEKGEFRE
light chain-HPC4: DVVMTQTPLSLPVSLGDQASISCRSSQSLVHRNGNTYFHWALQKPGQSPKLLIYKVSNRFSGVPDRFSGSGSGTDFTLKISRVEAEDLGVYFCSQSTHVPYTFGGGTKLEIKRTVAAPSVFIFPPSDEQLKSGTASVVCLLNNFYPREAKVQWKVDNALQSGNSQESVTEQDSKDSTYSLSSTLTLSKADYEKHKVYACEVTHQGLSSPVTKSFNRGECEDQVDPRLIDGK
B3: Fab 0082-VH-CH1-L10-TF;LC-HPC4 (other)
VH-CH1-linker-TF: B2 VH-CH1-linker-TF with N61A
light chain-HPC4: B2 light chain-HPC4
B4: Fab 0023-LC-L3-TF;VH-CH1-HPC4 (other)
light chain-linker-TF: DIVVSQSPSSLAVSAGEKVTMSCKSSQSLLNSRTRKNYLAWYQQKPGQSPKLLIYWASTRESGVPDRFTGSGSGTDFTLTISSVQAEDLAVYYCKQSYNLLTFGAGTKLELKRTVAAPSVFIFPPSDEQLKSGTASVVCLLNNFYPREAKVQWKVDNALQSGNSQESVTEQDSKDSTYSLSSTLTLSKADYEKHKVYACEVTHQGLSSPVTKSFNRGECGSGGGGSGGGGSSGTTNTVAAYNLTWKSTNFKTILEWEPKPVNQVYTVQISTKSGDWKSKCFYTTDTECDLTDEIVKDVKQTYLARVFSYPAGNVESTGSAGEPLYENSPEFTPYLETNLGQPTIQSFEQVGTKVNVTVEDERTLVRRNNTFLSLRDVFGKDLIYTLYYWKSSSSGKKTAKTNTNEFLIDVDKGENYCFSVQAVIPSRTVNRKSTDSPVECMGQEKGEFRE
VH-CH1-HPC4: EVRLVESGGGLVQPGGSLKLSCATSGFTFSDYFMYWIRQTPEKRLEWVAYISNGGDSSSYPDTVKGRFTISRDNAKNTLYLQMSRLKSEDTAMYYCATNKNWDDYYDMDYWGQGTSVTVSSASTKGPSVFPLAPCSRSTSESTAALGCLVKDYFPEPVTVSWNSGALTSGVHTFPAVLQSSGLYSLSSVVTVPSSSLGTKTYTCNVDHKPSNTKVDKRVESKEDQVDPRLIDGK
B5: Fab 0023-LC-L6-TF;VH-CH1-HPC4 (other)
light chain-linker-TF: DIVVSQSPSSLAVSAGEKVTMSCKSSQSLLNSRTRKNYLAWYQQKPGQSPKLLIYWASTRESGVPDRFTGSGSGTDFTLTISSVQAEDLAVYYCKQSYNLLTFGAGTKLELKRTVAAPSVFIFPPSDEQLKSGTASVVCLLNNFYPREAKVQWKVDNALQSGNSQESVTEQDSKDSTYSLSSTLTLSKADYEKHKVYACEVTHQGLSSPVTKSFNRGECGGGGSGGGGSGSGGGGSGGGGSGGGGSSGTTNTVAAYNLTWKSTNFKTILEWEPKPVNQVYTVQISTKSGDWKSKCFYTTDTECDLTDEIVKDVKQTYLARVFSYPAGNVESTGSAGEPLYENSPEFTPYLETNLGQPTIQSFEQVGTKVNVTVEDERTLVRRNNTFLSLRDVFGKDLIYTLYYWKSSSSGKKTAKTNTNEFLIDVDKGENYCFSVQAVIPSRTVNRKSTDSPVECMGQEKGEFRE
VH-CH1-HPC4: B4 VH-CH1-HPC4
B6: Fab 0023-LC-L4a-TF;VH-CH1-HPC4 (other)
light chain-linker-TF: DIVVSQSPSSLAVSAGEKVTMSCKSSQSLLNSRTRKNYLAWYQQKPGQSPKLLIYWASTRESGVPDRFTGSGSGTDFTLTISSVQAEDLAVYYCKQSYNLLTFGAGTKLELKRTVAAPSVFIFPPSDEQLKSGTASVVCLLNNFYPREAKVQWKVDNALQSGNSQESVTEQDSKDSTYSLSSTLTLSKADYEKHKVYACEVTHQGLSSPVTKSFNRGECGSGGGGSGGGGSGGGGSSGTTNTVAAYNLTWKSTNFKTILEWEPKPVNQVYTVQISTKSGDWKSKCFYTTDTECDLTDEIVKDVKQTYLARVFSYPAGNVESTGSAGEPLYENSPEFTPYLETNLGQPTIQSFEQVGTKVNVTVEDERTLVRRNNTFLSLRDVFGKDLIYTLYYWKSSSSGKKTAKTNTNEFLIDVDKGENYCFSVQAVIPSRTVNRKSTDSPVECMGQEKGEFRE
VH-CH1-HPC4: B4 VH-CH1-HPC4
B7: Fab 0012-VH-CH1-L4a-hTF.1-219; LC-HPC4 (other)
heavy: EVKLLESGGGLVQPGGSLKLSCAASGFDFSRYWMTWVRQAPGKGLEWIGEINPDSSTINYTPSLKDKFIISRDNAKNTLYLQMSEVRSEDTALYYCASGVFTSWGQGTLVTVSAASTKGPSVFPLAPCSRSTSESTAALGCLVKDYFPEPVTVSWNSGALTSGVHTFPAVLQSSGLYSLSSVVTVPSSSLGTKTYTCNVDHKPSNTKVDKRVESKGSGGGGSGGGGSGGGGSSGTTNTVAAYNLTWKSTNFKTILEWEPKPVNQVYTVQISTKSGDWKSKCFYTTDTECDLTDEIVKDVKQTYLARVFSYPAGNVESTGSAGEPLYENSPEFTPYLETNLGQPTIQSFEQVGTKVNVTVEDERTLVRRNNTFLSLRDVFGKDLIYTLYYWKSSSSGKKTAKTNTNEFLIDVDKGENYCFSVQAVIPSRTVNRKSTDSPVECMGQEKGEFRE
light: B2 light chain-HPC4 with A41C
B8: Fab 0051-LC-L4a-TF;VH-CH1-HPC4 (other)
light chain-linker-TF: SIVMTQTPKFLLVSAGDRVTITCKASQSVSNDVAWYQQKPGQSPKLLINYASSRYTGIPDRFTGSGYGTDFTFTISTVQAEDLAVYFCQQDYSSPYTFGGGTKLEIERTVAAPSVFIFPPSDEQLKSGTASVVCLLNNFYPREAKVQWKVDNALQSGNSQESVTEQDSKDSTYSLSSTLTLSKADYEKHKVYACEVTHQGLSSPVTKSFNRGECGSGGGGSGGGGSGGGGSSGTTNTVAAYNLTWKSTNFKTILEWEPKPVNQVYTVQISTKSGDWKSKCFYTTDTECDLTDEIVKDVKQTYLARVFSYPAGNVESTGSAGEPLYENSPEFTPYLETNLGQPTIQSFEQVGTKVNVTVEDERTLVRRNNTFLSLRDVFGKDLIYTLYYWKSSSSGKKTAKTNTNEFLIDVDKGENYCFSVQAVIPSRTVNRKSTDSPVECMGQEKGEFRE
VH-CH1-HPC4: QVQLEQSGAELVRPGVSVKISCKGSGYTFTDYSMHWVKQSHAKSLEWIGVISTYYGDVRYNQKFKGKATMTVDKSSSTAYMALARLTSEDSAIYYCARAPMITTGAWFAYWGQGTLVTVSAASTKGPSVFPLAPCSRSTSESTAALGCLVKDYFPEPVTVSWNSGALTSGVHTFPAVLQSSGLYSLSSVVTVPSSSLGTKTYTCNVDHKPSNTKVDKRVESKEDQVDPRLIDGK

target: T1, TLT-1 receptor on the surface of …; test: cell-based or functional assay

FVIIa-mediated FXa generation % Activity activated plts (n 1) [%] | FVII-mediated FXa generation % Activity activated plts (n 1) [%] | Binder
132 | – | B1
62 | 39 | B2
57 | 40 | B3
43 | 20 | B4
45 | 20 | B5
21 | 21 | B6

target: T2, TLT-1 18-188 relipidated in 20:80 PS:PC …; test: cell-based or functional assay

FVII-mediated FXa generation % Activity lipidated TLT-1 [%] | FVIIa-mediated FXa generation % Activity lipidated TLT-1 [%] | Binder
90 | 98 | B1
60 | 72 | B7
101 | 101 | B2
103 | 103 | B3
26 | 42 | B4
27 | 44 | B5
24 | 40 | B6
22 | 43 | B8
